From PMC4121237, “Engineering Neprilysin Activity and Specificity to Create a Novel Therapeutic for Alzheimer’s Disease” (PLoS ONE, 2014)

Assays:
[1] = biological target: T1, wild-type NEP (Homo sapiens, UniProt P08473); test: Inhibition of Aβ1–40 cleavage activity, fluorescence polarisation; assay type: biochemical; conditions: enzyme wild-type NEP 20 nM; Aβ1–40 substrate 10 µM
T1 construct: DNA encoding amino acids 52–749 of human NEP variants was amplified by PCR; made in house; host or cells: CHO suspension cells (transient, secreted)
Method: (§1) The effect of inhibitors on NEP activity was determined using the above fluorescence polarisation assay to measure the rate of Aβ1–40 cleavage with a substrate concentration of 10 µM, an enzyme concentration of 20 nM and inhibitor concentrations in the range 2 nM to 100 µM.

[2] = biological target: T2, NEPv (NEP G399V/G714K) (Homo sapiens, UniProt P08473, G400V/G715K); test: as above; assay type: biochemical
T2 construct: DNA encoding amino acids 52–749 of human NEP variants was amplified by PCR; made in house; host or cells: CHO suspension cells (transient, secreted)
Method: as §1

[3] = biological target: NEP G399V (Homo sapiens, UniProt P08473, G400V); test: biochemical
Method: as §1

[4] = biological target: NEP G714K (Homo sapiens, UniProt P08473, G715K); test: biochemical
Method: as §1

[5] = test system: Somatostatin 14; test: Steady-state kinetics of peptide cleavage, fluorescence polarisation; assay type: biochemical; conditions: substrate Somatostatin 14; 37°C, pH 7.4
Method: (§2) For detailed kinetic characterisation of peptide cleavage by NEP, a similar assay to that above was used with modifications based on a published method. Peptides were synthesised by Bachem using 9-fluorenylmethyloxycarbonyl solid-phase peptide synthesis and were labelled with a N-terminal 5(6)FAM via a ε-aminocaproic acid linker and a C-terminal biotin via a lysine linker (Table S1). Purified peptides were supplied as trifluoroacetate salts with a purity ≥95%. The assay was performed in a 96-well microtitre plate and contained 50 mM HEPES (pH 7.4), 100 mM NaCl, 0.05% (w/v) BSA (Buffer A), 1–200 µM peptide substrate and 1–500 nM NEP protein. Reactions were incubated at 37°C before being stopped at various time points between 2 and 360 min by transferring 5 µL aliquots to 245 µL Buffer A containing 2 mM 1,10-phenanethroline (Sigma) and 2 µM avidin (Invitrogen). For peptide substrates containing disulphide bonds, 1 mM tris(2-carboxyethyl)phosphine (Thermo Scientific) was added to the stop solution. The fluorescence polarisation of the resulting solution was measured on a Victor plate reader and the amount of substrate cleaved was determined with reference to substrate-only controls with and without avidin. Initial rates were obtained by linear regression of the linear regions of time courses. Enzyme velocity was plotted as a function of substrate concentration and the Michaelis-Menten equation was used to fit the data, giving the parameters kcat and KM.

[6] = test system: Neurotensin; test: as above; assay type: biochemical; conditions: substrate Neurotensin; 37°C, pH 7.4
Method: as §2

[7] = test system: Arg-vasopressin; test: as above; assay type: biochemical; conditions: substrate Arg-vasopressin; 37°C, pH 7.4
Method: as §2

[8] = test system: Neurokinin B; test: as above; assay type: biochemical; conditions: substrate Neurokinin B; 37°C, pH 7.4
Method: as §2

[9] = test system: ANP; test: as above; assay type: biochemical; conditions: substrate ANP; 37°C, pH 7.4
Method: as §2

[10] = test system: Glucagon; test: as above; assay type: biochemical; conditions: substrate Glucagon; 37°C, pH 7.4
Method: as §2

[11] = test system: GRP; test: as above; assay type: biochemical; conditions: substrate GRP; 37°C, pH 7.4
Method: as §2

[12] = test system: Nociceptin; test: as above; assay type: biochemical; conditions: substrate Nociceptin; 37°C, pH 7.4
Method: as §2

[13] = test system: Neurokinin A; test: as above; assay type: biochemical; conditions: substrate Neurokinin A; 37°C, pH 7.4
Method: as §2

[14] = test system: α-endorphin; test: as above; assay type: biochemical; conditions: substrate α-endorphin; 37°C, pH 7.4
Method: as §2

[15] = test system: Angiotensin; test: as above; assay type: biochemical; conditions: substrate Angiotensin; 37°C, pH 7.4
Method: as §2

[16] = test system: Substance P; test: as above; assay type: biochemical; conditions: substrate Substance P; 37°C, pH 7.4
Method: as §2

[17] = test system: γ-endorphin; test: as above; assay type: biochemical; conditions: substrate γ-endorphin; 37°C, pH 7.4
Method: as §2

[18] = test system: Aβ1–40; test: as above; assay type: biochemical; conditions: substrate Aβ 1–40; 37°C, pH 7.4
Method: as §2

[19] = test system: Bradykinin; test: as above; assay type: biochemical; conditions: substrate Bradykinin; 37°C, pH 7.4
Method: as §2

[20] = test system: GLP-1; test: as above; assay type: biochemical; conditions: substrate GLP-1; 37°C, pH 7.4
Method: as §2

[21] = test system: Endothelin-1; test: Steady-state kinetics of endothelin-1 cleavage, stopped assay with RP-HPLC; assay type: biochemical; conditions: substrate Endothelin-1 (unlabelled); RP-HPLC, 10 min at 37°C
Method: Kinetic parameters for cleavage of endothelin-1 by NEP were determined using a stopped assay in which the amount of substrate cleaved was measured using reversed-phase HPLC (RP-HPLC). Endothelin-1 was incubated at 12.5–200 µM in the presence of wild type NEP or NEPv and reactions were stopped after 10 min at 37°C by the addition of an equal volume of 1∶1∶1 water:acetonitrile:TFA containing 2 mM tris(2-carboxyethyl)phosphine (Thermo Scientific). RP-HPLC spectra were recorded using an Agilent 1260 Infinity system. Injections of 20 µL were made for each sample and analytes were separated by elution on an Agilent Polaris C8-A stationary phase column (4.6×100 mm, 3 µm) at 1.5 mL min^−1 using a linear binary gradient of 10–90% acetonitrile in water with 0.1% (v/v) TFA over 15 minutes at 40°C. Signal intensity for intact endothelin-1 was monitored at 210 nm and relative peak area was determined by manual integration of the baseline. Kinetic parameters were derived from the activity data as described above.

[22] = test system: Aβ1–40; test: Endpoint degradation assay with ELISA read-out; assay type: biochemical, human; conditions: 1 hour at room temperature; Aβ40 ELISA
Method: (§3) Supplementary file pone.0104001.s001.tif: Figure S1 Degradation of Aβ1–40 and Aβ1–42 by NEP wild-type and NEPv. Measurement of the degredation of Aβ1–40 (A) and Aβ1–42 (B) was performed by incubating peptide and either wild-type NEP (▪) or NEPv (Δ) for 1 hour at room temperature. The reaction was stopped by the addition of 1.10-phenanthroline to a final concentration of 10 µM. 50 µl (Aβ40 analysis) or 100 µl (Aβ42 analysis) of the reaction mix was transferred to an ELISA plate. Aβ40 and Aβ42 concentrations after degradation were determined using Invitrogen human Aβ40 ELISA kit (Invitrogen, California, US), and Innotest β-amyloid RUO (1–42) ELISA (Innogenetics, Gent, Belgium). […] (TIF) Click here for additional data file.

[23] = biological target: T3, Aβ1–42 (Homo sapiens, UniProt P05067); test: Endpoint degradation assay with ELISA read-out; assay type: biochemical; conditions: 1 hour at room temperature; Aβ42 ELISA
T3 construct: Aβ 1-42^a
Method: as §3

T2 sequence (P08473 53-750 G400V/G715K): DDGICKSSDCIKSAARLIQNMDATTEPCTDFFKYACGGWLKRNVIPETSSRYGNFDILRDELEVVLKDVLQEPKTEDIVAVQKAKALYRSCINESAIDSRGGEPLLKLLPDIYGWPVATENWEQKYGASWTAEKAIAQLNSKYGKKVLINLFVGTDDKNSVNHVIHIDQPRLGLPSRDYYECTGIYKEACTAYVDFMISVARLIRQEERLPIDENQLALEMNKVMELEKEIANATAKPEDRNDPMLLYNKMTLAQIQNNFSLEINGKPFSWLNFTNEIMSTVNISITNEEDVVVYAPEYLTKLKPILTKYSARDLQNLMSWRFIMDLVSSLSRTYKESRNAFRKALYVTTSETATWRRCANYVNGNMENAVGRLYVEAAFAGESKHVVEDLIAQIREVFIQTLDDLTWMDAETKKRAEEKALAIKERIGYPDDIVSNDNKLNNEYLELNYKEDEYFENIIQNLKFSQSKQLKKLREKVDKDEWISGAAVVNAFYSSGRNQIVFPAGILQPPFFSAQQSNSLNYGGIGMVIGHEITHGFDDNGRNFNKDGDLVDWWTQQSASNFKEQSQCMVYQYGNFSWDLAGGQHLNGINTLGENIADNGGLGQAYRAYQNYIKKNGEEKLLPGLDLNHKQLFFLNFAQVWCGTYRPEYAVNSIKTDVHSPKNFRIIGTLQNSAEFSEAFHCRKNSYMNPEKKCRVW
Sequence of NEP G714K (P08473 53-750 G715K): as the sequence (P08473 53-750 G400V/G715K) above, with V348G counted along it
T3 sequence (P05067 672-713): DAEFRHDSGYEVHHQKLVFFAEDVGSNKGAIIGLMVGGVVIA
T1 sequence (P08473 53-750): as the sequence (P08473 53-750 G400V/G715K) above, with V348G, K663G counted along it
Sequence of NEP G399V (P08473 53-750 G400V): as the sequence (P08473 53-750 G400V/G715K) above, with K663G counted along it

Molecule: CC(C)C[C@H](NP(=O)(O)O[C@@H]1O[C@@H](C)[C@H](O)[C@@H](O)[C@H]1O)C(=O)N[C@@H](Cc1c[nH]c2ccccc12)C(=O)O [Phosphoramidon, phosphoramidon]
- IC50 [1]: < 10 nM
- potency lower on NEPv than for wild-type NEP ([2]; NEPv versus wild-type NEP): > 2000 fold
- IC50 ([2]; enzyme NEPv 20 nM, Aβ1–40 substrate 10 µM): 21000 nM
- IC50 [3]: 610 nM
- IC50 [4]: 100 nM

B1: wild-type NEP: soluble extracellular domain (amino acids 52–749) of wild type human NEP (neprilysin), tagged, recombinantly expressed (protein, UniProt P08473 52-749, looked up, fragment)
chain: YDDGICKSSDCIKSAARLIQNMDATTEPCTDFFKYACGGWLKRNVIPETSSRYGNFDILRDELEVVLKDVLQEPKTEDIVAVQKAKALYRSCINESAIDSRGGEPLLKLLPDIYGWPVATENWEQKYGASWTAEKAIAQLNSKYGKKVLINLFVGTDDKNSVNHVIHIDQPRLGLPSRDYYECTGIYKEACTAYVDFMISVARLIRQEERLPIDENQLALEMNKVMELEKEIANATAKPEDRNDPMLLYNKMTLAQIQNNFSLEINGKPFSWLNFTNEIMSTVNISITNEEDVVVYAPEYLTKLKPILTKYSARDLQNLMSWRFIMDLVSSLSRTYKESRNAFRKALYGTTSETATWRRCANYVNGNMENAVGRLYVEAAFAGESKHVVEDLIAQIREVFIQTLDDLTWMDAETKKRAEEKALAIKERIGYPDDIVSNDNKLNNEYLELNYKEDEYFENIIQNLKFSQSKQLKKLREKVDKDEWISGAAVVNAFYSSGRNQIVFPAGILQPPFFSAQQSNSLNYGGIGMVIGHEITHGFDDNGRNFNKDGDLVDWWTQQSASNFKEQSQCMVYQYGNFSWDLAGGQHLNGINTLGENIADNGGLGQAYRAYQNYIKKNGEEKLLPGLDLNHKQLFFLNFAQVWCGTYRPEYAVNSIKTDVHSPGNFRIIGTLQNSAEFSEAFHCRKNSYMNPEKKCRV
modifications: extracellular domain tag
notes: soluble extracellular domain (amino acids 52–749) of wild type human NEP (neprilysin), tagged, recombinantly expressed
- Km [5]: 7.4 ± 0.9 µM
- kcat [5]: 32 ± 1 s⁻¹
- Km [6]: 16 ± 2 µM
- kcat [6]: 13 ± 0.6 s⁻¹
- Km [7]: 6.2 ± 1 µM
- kcat [7]: 2.8 ± 0.2 s⁻¹
- Km [8]: 22 ± 2 µM
- kcat [8]: 20 ± 0.8 s⁻¹
- Km [9]: 8.4 ± 0.8 µM
- kcat [9]: 7.1 ± 0.2 s⁻¹
- Km [10]: 25 ± 5 µM
- kcat [10]: 4.5 ± 0.4 s⁻¹
- Km [11]: 150 ± 30 µM
- kcat [11]: 26 ± 4 s⁻¹
- Km [12]: 20 ± 1 µM
- kcat [12]: 11 ± 0.3 s⁻¹
- Km [13]: 9.3 ± 1 µM
- kcat [13]: 17 ± 0.7 s⁻¹
- Km [14]: 24 ± 0.5 µM
- kcat [14]: 8.9 ± 0.08 s⁻¹
- Km [15]: 8.6 ± 0.9 µM
- kcat [15]: 8.2 ± 0.3 s⁻¹
- Km [16]: 16 ± 1 µM
- kcat [16]: 18 ± 0.6 s⁻¹
- Km [17]: 13 ± 1 µM
- kcat [17]: 4.8 ± 0.2 s⁻¹
- Km [18]: 104 ± 20 µM
- kcat [18]: 0.83 ± 0.1 s⁻¹
- Km [19]: 32 ± 5 µM
- kcat [19]: 16 ± 1 s⁻¹
- Km [20]: 24 ± 4 µM
- kcat [20]: 3.3 ± 0.3 s⁻¹
- Km [21]: 53 ± 10 µM
- kcat [21]: 0.68 ± 0.06 s⁻¹
- EC50 [22]: 243 nM
- EC50 [23]: 144 nM
